The target of the test is Xenopus cyclase-associated protein 1 (XCAP1) (X. laevis (endogenous in oocytes)). The test is described as follows: SEC-MALS + AUC; purified native XCAP1-actin complex; SEC-MALS on SRT SEC-300 in PBS pH 7.2, 0.02% NaN3, 20 °C; sedimentation velocity at 40,000 rpm, 20 °C.

“Xenopus cyclase-associated protein 1 (XCAP1) (natural protein)”: the stoichiometry N amounted to 4.

The values above are taken from paper PMC8113726.
